Target: IL-21 (human) (UniProt Q9HBE4)
Assay: cell-based or functional assay

UniProt Q9HBE4, sequence (Q9HBE4 25-162 limits assumed): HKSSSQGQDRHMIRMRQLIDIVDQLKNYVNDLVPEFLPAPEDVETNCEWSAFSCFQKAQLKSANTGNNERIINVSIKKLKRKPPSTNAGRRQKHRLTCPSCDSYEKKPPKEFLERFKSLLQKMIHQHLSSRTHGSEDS

decrease in plasma cell differentiation of memory B cells co-cultured with blood PD-1hi CXCR5+ or PD-1hi CXCR5- CD4+ T cells: 90%
Substance: IL-21R-Ig fusion protein (from UniProt Q9HBE5 20-232) (Fc fusion)
